Measurements: the RNAGym collection of RNA variant scans (doi:10.1073/pnas.2313332121)
Fewer inactive variants are shown than the library holds.

B1: TPR 5TU (parent)
chain: GGAUCUUCUCGAUCUAACAAAAAAGACAAAUCUGCCACAAAGCUUGAGAGCAUCUUCGGAUGCAGAGGCGGCAGCCUUCGGUGGCGCGAUAGCGCCAACGUUCUCAACUAUGACACGCAAAACGCGUGCUCCGUUGAAUGGAGUUUAUCAUG

Variants of: B1
Assay: polymerase ribozyme fitness, log enrichment relative to wild type (log ratio); higher = more active; in vitro selection for triplet polymerase activity
How it was run: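 After PCR construction and transcription, each subunit's mutant library from a heterodimeric triplet polymerase ribozyme was annealed with a biotinylated primer, the partner subunit and triplets. Incubation was frozen, at −7 °C, and extended constructs were gel-excised, bound to streptavidin beads and amplified by RT-PCR, in one selection round done in triplicate. Fitness is the logarithm of a genotype's enrichment divided by that of the wild type, from inverse-variance-weighted replicate averages of Illumina-sequenced inputs and outputs. The base of the logarithm is 2, and genotypes needed ≥10 input reads and ≥1 read per output.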

Compared with GGAUCUUCUCGAUCUAACAAAAAAGACAAAUCUGCCACAAAGCUUGAGAGCAUCUUCGGAUGCAGAGGCGGCAGCCUUCGGUGGCGCGAUAGGGCCAACGUGCUCAACUAUGACACGCAAAACGCGUGCUCCGUUGAAUGGAGUUUAUCAUG, GGAUCUUCUCGAUCUAACAAAAAAGACAAAUCUGCCACAAAGCUUGAGAGCAUCUUCGGAUGCAGAGGCGGCAGCCUUCGGUGGCGCGAUAGGGCCAACGUUCUCAACUAUGACACGCAAAACGCGUGCUCCGUUGAAUGGAGUUUAUUAUG is higher in “polymerase ribozyme fitness (log ratio)” value: ≤ -4.2 for the first, -4.08 for the second.

Compared with GGAUCUUCUCGAUCUAACAAAAAAGACAAAUCUGCCACAAAGCUUGAGAGCAUCUUCGGAUGCAGAGGCGGCAGCCUUCGGUGGCGCGAUAGGGCCUACGUUCUCAACUAUGACACGCAAGACGCGUGCUCCGUUGAAUGGAGUUUAUCAUG, GGAUCUUCUCGAUCUAACAAAAAAGACAAAUCUGCCACAAAGCUUGAGAGCAUCUUCGGAUGCAGAGGCGGCAGCCUUCGGUGGCGCGAUAGGGCCAACGUUCUCAACUAUGACACGCAAAACGCGUGCUCCGUUGAAUGGCGUUUAUCAUG is higher in “polymerase ribozyme fitness (log ratio)” value: ≤ -4.2 for the first, -4.02 for the second.

First: GGAUCUUCUCGAUCUAACAAAAAAGACAAAUCUGCCACAAAGCUUGAGAGCAUCUUCGGAUGCAGAGGCGGCAGCCUUCGGUGGCGCGAUAGGGCCAACGUUCUCAACUAUGACACGCAAAACGCGUGCUCCGUUGAAUGGUGUUUAUCAUG
Second: GGAUCUUCUCGAUCUAACAAAAAAGACAAAUCUGCCACAAAGCUUGAGAGCAUCUUCGGAUGCAGAGGCGGCAGCCUUCGGUGGCGCGAUAGGGCCAACGUUCUCAACUAUGACACGCCAAACGCGUGCUCCGUUGAAUGGAGUUUAUCAUG
The “polymerase ribozyme fitness (log ratio)” value of the first is higher: -3.03 for the first, -3.47 for the second.

Going from GGAUCUUCUCGAUCUAACAAAAAAGACAAAUCUGCCACAAAGCUUGAGAGCAUCUUCGGAUGCAGAGGCGGCAGCCUUCGGUGGCGCGAUAGGGCCAACGUUCUCAACUAUGACACGCAAAACGCGUGCUCCGUUGAAUGCAGUUUAUCAUG to GGAUCUUCUCGAUCUAACAAAAAAGACAAAUCUGCCACAAAGCUUGAGAGCAUCUUCGGAUGCAGAGGCGGCAGCCUUCGGUGGCGCGAUAGGGCCAACGUUCUCAAGUAUGACACGCAAAACGCGUGCUCCGUUGAAUGGCGUUUAUUAGG, the “polymerase ribozyme fitness (log ratio)” value falls from -3.36 to ≤ -4.2.

Compared with GGAUCUUCUCGAUCUAACAAAAAAGACAAAUCUGCCACAAAGCUUGAGAGCAUCUUCGGAUGCAGAGGCGGCAGCCUUCGGUGGCGCGAUAGGGCCAACGUUCUCAACUAUGACACGCAAAAUGCGUGCUCCGUUGAAUGUAGUUUAUCAUG, GGAUCUUCUCGAUCUAACAAAAAAGACAAAUCUGCCACAAAGCUUGAGAGCAUCUUCGGAUGCAGAGGCGGCAGCCUUCGGUGGCGCGAUAGGGCCAACGUUCUCAACUAUGACGCGCAAAACGCGUGCUUCGUUGAAUGGAGUUUAUCAUG is lower in “polymerase ribozyme fitness (log ratio)” value: -2.27 for the first, -3.48 for the second.

Going from GGAUCUUCUCGAUCUAACAAAAAAGACAAAUCUGCCACAAAGCUUGAGAGCAUCUUCGGAUGCAGAGGCGGCAGCCUUCGGUGGCGCGAUAGGGCCAACGUUCUCAAUUAUGACAGGCAAAACGCGUGCUCCGUUGAAUGGAGUUUAUCAUG to GGAUCUUCUCGAUCUAACAAAAAAGACAAAUCUGCCACAAAGCUUGAGAGCAUCUUCGGAUGCAGAGGCGGCAGCCUUCGGUGGCGCGAUAGUGCCAACGUUCUCAACUGUGACACGCAAAACGCGUGCUCCGUUGAAUGGAGUUUAUCAUG, the “polymerase ribozyme fitness (log ratio)” value rises from ≤ -4.2 to -3.25.

Going from GGAUCUUCUCGAUCUAACAAAAAAGACAAAUCUGCCACAAAGCUUGAGAGCAUCUUCGGAUGCAGAGGCGGCAGCCUUCGGUGGCGCGAUAGGGCCAACGUUCUCAACUAUGACACGCAAAACGCGUGCUCCGUUGAAUGGAGUUUUUCAUG to GGAUCUUCUCGAUCUAACAAAAAAGACAAAUCUGCCACAAAGCUUGAGAGCAUCUUCGGAUGCAGAGGCGGCAGCCUUCGGUGGCGCGAUAGGGCCAACGUUCUCAAGUAUGACACGCAAAACGCGUGCUCCGUUGAAUGGAGUUUAUCAUG, the “polymerase ribozyme fitness (log ratio)” value falls from -1.74 to -3.9.

Compared with GGAUCUUCUCGAUCUAACAAAAAAGACAAAUCUGCCACAAAGCUUGAGAGCAUCUUCGGAUGCAGAGGCGGCAGCCUUCGGUGGCGCGAUAGGGCCAACGUUCUCAAUUAUGACACGCAAAACGCGUGCUCCGUUGAAUGGAGUUUAUCAUG, GGAUCUUCUCGAUCUAACAAAAAAGACAAAUCUGCCACAAAGCUUGAGAGCAUCUUCGGAUGCAGAGGCGGCAGCCUUCGGUGGCGCGAUAGGGCCAACGUUCUCAACUAUGACACGCAAAACGCGUGCUCCGUUGAAUGGAGUGUAUCAUG is higher in “polymerase ribozyme fitness (log ratio)” value: -3.94 for the first, -2.53 for the second.

GGAUCUUCUCGAUCUAACAAAAAAGACAAAUCUGCCACAAAGCUUGAGAGCAUCUUCGGAUGCAGAGGCGGCAGCCUUCGGUGGCGCGAUAGGGCCACCGUUCUCAACUAUGACACGCAAAACGCGUGCUCCGUUGAAUGGAGUUUAUCAUG and GGAUCUUCUCGAUCUAACAAAAAAGACAAAUCUGCCACAAAGCUUGAGAGCAUCUUCGGAUGCAGAGGCGGCAGCCUUCGGUGGCGCGAUAGGGCCAUCGUUCUCAACUAUGACACGCAAAACGCGUGCUCCGUUGAAUGGAGUUUAUCAUG are within 0.2 log units of each other in “polymerase ribozyme fitness (log ratio)” value: -2.81 for the first, -2.82 for the second.

Going from GGAUCUUCUCGAUCUAACAAAAAAGACAAAUCUGCCACAAAGCUUGAGAGCAUCUUCGGAUGCAGAGGCGGCAGCCUUCGGUGGCGCGAUAGUGCCAACGUUCUCCACUAUGACACGCAAAACGCGUGCUCCGUUGAAUGGAGUUUAUCAUG to GGAUCUUCUCGAUCUAACAAAAAAGACAAAUCUGCCACAAAGCUUGAGAGCAUCUUCGGAUGCAGAGGCGGCAGCCUUCGGUGGCGCGAUAGGGCCAACGUUCUCAACUAUGACACGCAAAACGCGUGCUCCGUUGAAUGGAGUUUAUCGUG, the “polymerase ribozyme fitness (log ratio)” value falls from -1.75 to -4.14.

Going from GGAUCUUCUCGAUCUAACAAAAAAGACAAAUCUGCCACAAAGCUUGAGAGCAUCUUCGGAUGCAGAGGCGGCAGCCUUCGGUGGCGCGAUAGGGCCAACGUUCUCAACUAUGACAUGCAAAACGCGUGCUCCGUUGAAUGGAGUUUAUCAUG to GGAUCUUCUCGAUCUAACAAAAAAGACAAAUCUGCCACAAAGCUUGAGAGCAUCUUCGGAUGCAGAGGCGGCAGCCUUCGGUGGCGCGAUAGGGCCAACGUUCUAAACUAUGACACGCAAAACGCGUGCUCCGUUUAAUGGAGUUUAUCAUG, the “polymerase ribozyme fitness (log ratio)” value falls from -3.07 to ≤ -4.2.

Compared with GGAUCUUCUCGAUCUAACAAAAAAGACAAAUCUGCCACAAAGCUUGAGAGCAUCUUCGGAUGCAGAGGCGGCAGCCUUCGGUGGCGCGAUAGUGCCAGCGUUCUCAACUAUGACACGCAAAACGCGUGCUCCGUUGAAUGGAGUUUAUCAUG, GGAUCUUCUCGAUCUAACAAAAAAGACAAAUCUGCCACAAAGCUUGAGAGCAUCUUCGGAUGCAGAGGCGGCAGCCUUCGGUGGCGCGAUAGUGCCUACGUUCUCAACUAUGACAAGCAAAACGCGUGCUCCAUUGAAUGGAGUUUAUCAUG is lower in “polymerase ribozyme fitness (log ratio)” value: -1.59 for the first, ≤ -4.2 for the second.

First: GGAUCUUCUCGAUCUAACAAAAAAGACAAAUCUGCCACAAAGCUUGAGAGCAUCUUCGGAUGCAGAGGCGGCAGCCUUCGGUGGCGCGAUAGUGCCUACGUUCUCAACUAUGACACGCAAAACGAGUGCUCCGUUGAAUGGAGUUUAUCAUG
Second: GGAUCUUCUCGAUCUAACAAAAAAGACAAAUCUGCCACAAAGCUUGAGAGCAUCUUCGGAUGCAGAGGCGGCAGCCUUCGGUGGCGCGAUAGUGCCAACGUUCUCCACUAUGACACGCAAAACGCGUGGUCCGUUGAAUGGAAUUUAUCAUG
The “polymerase ribozyme fitness (log ratio)” value of the first is higher: -2.13 for the first, -3.64 for the second.

GGAUCUUCUCGAUCUAACAAAAAAGACAAAUCUGCCACAAAGCUUGAGAGCAUCUUCGGAUGCAGAGGCGGCAGCCUUCGGUGGCGCGAUAGGUACAACGUUCUCAACUAUGACACGCAAAACGCGUACUCCGUUGAAUGGAGUUUAUCAUG and GGAUCUUCUCGAUCUAACAAAAAAGACAAAUCUGCCACAAAGCUUGAGAGCAUCUUCGGAUGCAGAGGCGGCAGCCUUCGGUGGCGCGAUAGGGCCUACGUUCUCAACUAUGACACGCAAAACGCGUGCUCCGUUGAAUGGAGUGUAUCAUG cannot be ordered by “polymerase ribozyme fitness (log ratio)” value: ≤ -4.2 for the first, ≤ -4.2 for the second.

GGAUCUUCUCGAUCUAACAAAAAAGACAAAUCUGCCACAAAGCUUGAGAGCAUCUUCGGAUGCAGAGGCGGCAGCCUUCGGUGGCGCGAUAGGGCCAACGUUCUAAGCUAUGACACGCAAAACGCGUGCUCCGUUGAAUGUAGUUUAUCAUG and GGAUCUUCUCGAUCUAACAAAAAAGACAAAUCUGCCACAAAGCUUGAGAGCAUCUUCGGAUGCAGAGGCGGCAGCCUUCGGUGGCGCGAUAGUGCCCACGUUCUCAACUAUGACACGCAAAACGCGUGCUCCGUUGAAUAGAGUUUAUCAUG cannot be ordered by “polymerase ribozyme fitness (log ratio)” value: ≤ -4.2 for the first, ≤ -4.2 for the second.

Going from GGAUCUUCUCGAUCUAACAAAAAAGACAAAUCUGCCACAAAGCUUGAGAGCAUCUUCGGAUGCAGAGGCGGCAGCCUUCGGUGGCGCGAUAGUGCCAACGUUCUCAUCUAUGACACGCAAAACGCGUGCUCCGUUGAAUGGAGUUUAUCAUG to GGAUCUUCUCGAUCUAACAAAAAAGACAAAUCUGCCACAAAGCUUGAGAGCAUCUUCGGAUGCAGAGGCGGCAGCCUUCGGUGGCGCGAUAGGGCCAACGCUCUCAACUAUGACACGCAAAACGCGUGCUCCGUUGAAUGGAGUUUAUCAUG, the “polymerase ribozyme fitness (log ratio)” value rises from -4.04 to -3.2.

Compared with GGAUCUUCUCGAUCUAACAAAAAAGACAAAUCUGCCACAAAGCUUGAGAGCAUCUUCGGAUGCAGAGGCGGCAGCCUUCGGUGGCGCGAUAGGGCUAACGUUCUCAACUAUGACACGCAAAACGCGUGCUCCGUUGAAUGGAGUUUAUCAUG, GGAUCUUCUCGAUCUAACAAAAAAGACAAAUCUGCCACAAAGCUUGAGAGCAUCUUCGGAUGCAGAGGCGGCAGCCUUCGGUGGCGCGAUAGUGCCCACGUUCUCAACUAUGACACGCAAAACGCGUGCUCCGUUGAAUGGAGUUUAUCAUG is higher in “polymerase ribozyme fitness (log ratio)” value: -3.61 for the first, -0.557 for the second.

First: GGAUCUUCUCGAUCUAACAAAAAAGACAAAUCUGCCACAAAGCUUGAGAGCAUCUUCGGAUGCAGAGGCGGCAGCCUUCGGUGGCGCGAUAGUGCCUACGUUCUCAACUAUGACACGCAAAACGCGUGCUCCGUUGAAUGGAGUUUAUCAUG
Second: GGAUCUUCUCGAUCUAACAAAAAAGACAAAUCUGCCACAAAGCUUGAGAGCAUCUUCGGAUGCAGAGGCGGCAGCCUUCGGUGGCGCGAUAGGGCCAACGUUCUCAGCUAUGACACGCAAAACGCGUGCUCCGUUGAAUGGAGUUUAUCAUG
The “polymerase ribozyme fitness (log ratio)” value of the first is higher: -2.14 for the first, ≤ -4.2 for the second.

GGAUCUUCUCGAUCUAACAAAAAAGACAAAUCUGCCACAAAGCUUGAGAGCAUCUUCGGAUGCAGAGGCGGCAGCCUUCGGUGGCGCGAUAGGGCCAACGUUCUCAACUAUGACACGCAAAACGCGUGCUCCGUUGAAUCGAGUUUAUCAUG and GGAUCUUCUCGAUCUAACAAAAAAGACAAAUCUGCCACAAAGCUUGAGAGCAUCUUCGGAUGCAGAGGCGGCAGCCUUCGGUGGCGCGAUAGGGCCAACGUUGUCAACUAUGACACGCAAAACGCGUGCUCCGUUGAAUGGAGUUUAUCAUG cannot be ordered by “polymerase ribozyme fitness (log ratio)” value: ≤ -4.2 for the first, ≤ -4.2 for the second.
